Laboratory results from IntAct's records for PubMed 19074269.

B1: Basic leucine zipper transcriptional factor ATF-like 2 (Homo sapiens), Q8N1L9-1 (parent)
chain: MHLCGGNGLLTQTDPKEQQRQLKKQKNRAAAQRSRQKHTDKADALHQQHESLEKDNLALRKEIQSLQAELAWWSRTLHVHERLCPMDCASCSAPGLLGCWDQAEGLLGPGPQGQHGCREQLELFQTPGSCYPAQPLSPGPQPHDSPSLLQCPLPSLSLGPAVVAEPPVQLSPSPLLFASHTGSSLQGSSSKLSALQPSLTAQTAPPQPLELEHPTRGKLGSSPDNPSSALGLARLQSREHKPALSAATWQGLVVDPSPHPLLAFPLLSSAQVHF

Variants of: B1
Details: with jun_human JUN

Row | effect of a mutation on the interaction | Variant
1 | disrupting interaction | L59P
